Results taken from patent US20260258137A1 (HARBOUR BIOMED SHANGHAI, published 2026).
Like-named read-outs stand apart in the source and are kept apart here.

How the values were obtained:
[1] = target: T1, human PD-L1 on Hep3B cells co-expressing human PD-L1 and OS8 (human, UniProt Q9NZQ7 19-290); test: cell-based or functional assay
[2] = target: T2, Human PD-L1 (Acrobiosystems, PD1-H5229) (human, UniProt Q9NZQ7 19-238); test: ELISA, coated human PD-L1
T2 construct: bought reagent; also called human PD-L1 protein
Description: After the liquid was discarded, the PBST buffer (pH 7.4, containing 0.05% tween-20) was used to wash the plate for 3 times. 250 μL of 2% BSA blocking buffer was added, and was incubated at the condition of 37° C. for 1 hr. The blocking buffer was discarded, and the PBST buffer (pH 7.4, containing 0.05% tween-20) was used to wash the plate for 3 times. The antigen binding proteins to be tested, serially diluted 5-fold starting from the concentration of 100 nM, 8 concentration gradients in total, were added at 100 μL per well, and were then incubated at 37° C. for 1 hr. […] After washing with PBST buffer (pH 7.4, containing 0.05% tween-20) for three times, the goat anti-human HRP secondary antibody (Invitrogen, A18805) that was diluted 4000-fold was added, and was incubated away from light at the condition of 37° C. for 1 hr. After washing by PBST buffer (pH 7.4, containing 0.05% tween-20) for three times, 100 μL/well of TMB (Biopanda, TMB-S-003) was added, and was placed away from light at room temperature for about 5 mins; stop solution (BBI life sciences, E661006-0200) was added to each well at 50 μL/well to stop the reaction. The Microplate Reader Enspire (PerkinElemer) was used to detect the absorption values at 450 nm (OD450). The software GraphPad Prism 8 was applied to perform data processing and plotting analysis, the parameters such as binding curves and EC50 values were obtained by four-parameter non-linear fitting.

[3] = target: T3, cynomolgus PD-L1 on CHO-K1 cells (CHO-K1/cynoPD-L1, Nanjing Genscript, M00573) (cynomolgus, UniProt G7PSE7 19-290); test: flow cytometry on CHO-K1/cynoPD-L1 cells
T3 construct: also called CHO-K1 cells overexpressing cynomolgus PD-L1
Excerpt: To study the binding activity of the PD-L1 antigen binding proteins to human/cynomolgus PD-L1 in vitro, this example uses the CHOK1 cell line overexpressing human PD-L1 (CHO-K1/hPD-L1, Nanjing Genscript, M00543) or the CHOK1 cell line overexpressing cynomolgus PD-L1 (CHO-K1/cynoPD-L1, Nanjing Genscript, M00573) to perform binding experiments at cellular level. In brief, the PD-L1 cells were digested, and resuspended in F-12K complete medium, and the cell density was adjusted to 1× 10⁶ cells/mL. […] The cells were placed at 4° C., incubated away from light for 1 hr. Then, 100 μL/well of pre-cooled PBS was added to wash cells twice. The cells were centrifuged at 500 g, 4° C. for 5 mins, and the supernatant was discarded. […] 200 μL/well of pre-cooled PBS was added to wash cells twice, and the cells were centrifuged at 500 g, 4° C. for 5 mins, and the supernatant was discarded. Finally, the cells were resuspended with 200 μL/well of pre-cooled PBS. The signal values of fluorescent luminescence were read using BD FACS MAYTOII. The flow cytometer BD FAC MAYTOII was used to read the signal values of fluorescent luminescence, and the software FlowJo v10 (FlowJo, LLC) was used to process and analyze data. The software GraphPad Prism 8 was applied to perform data processing and plotting analysis, and the parameters such as binding curves and EC50 values were obtained by four-parameter non-linear fitting.

[4] = target: T4, human PD-L1 on CHO-K1 cells (CHO-K1/hPD-L1, Nanjing Genscript, M00543) (human, UniProt Q9NZQ7 19-290); test: flow cytometry competition: biotin-hPD-1 binding to CHO-K1/hPD-L1 cells
T4 construct: whole, on cells; also called CHO-K1 cells overexpressing human PD-L1; human PD-L1 on the cell surface
Description: (§1) In brief, the CHO-K1/hPD-L1 cells were digested, and resuspended in F-12K complete medium. The cell density was adjusted to 1× 10⁶ cells/mL. […] Cells were placed at 4° C., and were incubated away from light for 1 hr. Then, the cells were centrifugated at 4° C. for 5 mins, and the supernatant was discarded. […] The cells were washed with 100 μL/well of pre-cooled PBS twice, centrifuged at 500 g, 4° C. for 5 mins, and the supernatant was discarded. […] 200 μL/well of pre-cooled PBS was used to wash cells twice, cells were centrifuged at 500 g, 4° C. for 5 mins, the supernatant was discarded. Finally, 200 μL/well of pre-cooled PBS was used to resuspend cells. The BD FACS MAYTOII was used to read the signal value of fluorescent luminescence. The software GraphPad Prism 8 was applied to perform data processing and plotting analysis, and the parameters such as binding curves and IC50 values were obtained by four-parameter non-linear fitting.

[5] = target: T5, human PD-L1 protein with histidine tag (NovoProtein, C315) (human, UniProt Q9NZQ7 19-239, limits assumed, biotinylated with EZ-Link Sulfo-NHS-LC-Biotin in the epitope competition experiments (Examples 8 and 20); not biotinylated in the affinity experiments); test: BLI (Octet), antibody on AHC sensor, antigen 60 nM, 1:1 local fit
T5 construct: bought reagent; also called biotinylated PD-L1 protein; not shown: histidine tag

[6] = target: T5, human PD-L1 protein with histidine tag …; test: BLI (Octet), antibody on AHC sensor, antigen 50~1.56 nM, 1:1 global fit
Description: When using Octet Data Analysis software (Fortebio, version 11.0) for data analysis, the double deduction mode (double reference) was selected to deduct the reference signal, the “1:1 Global fitting” method was selected for data fitting, the kinetic parameters of the binding of the antigen and the antigen binding proteins were calculated, and the kₒₙ (1/Ms) values, kdis (1/s) values and KD (M) values were obtained.

[7] = target: T1, human PD-L1 on Hep3B cells …; test: cell-based or functional assay; remark: listed apart in the source
[8] = target: T4, human PD-L1 on CHO-K1 cells …; test: flow cytometry on CHO-K1/hPD-L1 cells
Excerpt: (§2) To study the binding activity of the PD-L1 antigen binding proteins to human/cynomolgus PD-L1 in vitro, this example uses the CHOK1 cell line overexpressing human PD-L1 (CHO-K1/hPD-L1, Nanjing Genscript, M00543) or the CHOK1 cell line overexpressing cynomolgus PD-L1 (CHO-K1/cynoPD-L1, Nanjing Genscript, M00573) to perform binding experiments at cellular level. In brief, the PD-L1 cells were digested, and resuspended in F-12K complete medium, and the cell density was adjusted to 1× 10⁶ cells/mL. […] The cells were placed at 4° C., incubated away from light for 1 hr. Then, 100 μL/well of pre-cooled PBS was added to wash cells twice. The cells were centrifuged at 500 g, 4° C. for 5 mins, and the supernatant was discarded. […] 200 μL/well of pre-cooled PBS was added to wash cells twice, and the cells were centrifuged at 500 g, 4° C. for 5 mins, and the supernatant was discarded. Finally, the cells were resuspended with 200 μL/well of pre-cooled PBS. The signal values of fluorescent luminescence were read using BD FACS MAYTOII. The flow cytometer BD FAC MAYTOII was used to read the signal values of fluorescent luminescence, and the software FlowJo v10 (FlowJo, LLC) was used to process and analyze data. […]

[9] = target: T4, human PD-L1 on CHO-K1 cells …; test: flow cytometry on CHO-K1/hPD-L1 cells; remark: listed apart in the source
Excerpt: as §2

[10] = target: T4, human PD-L1 on CHO-K1 cells …; test: flow cytometry competition: biotin-hPD-1 binding to CHO-K1/hPD-L1 cells; remark: listed apart in the source
Description: as §1

[11] = target: T4, human PD-L1 on CHO-K1 cells …; test: as above; remark: listed apart in the source
Description: as §1

T5 sequence (Q9NZQ7 19-239 limits assumed): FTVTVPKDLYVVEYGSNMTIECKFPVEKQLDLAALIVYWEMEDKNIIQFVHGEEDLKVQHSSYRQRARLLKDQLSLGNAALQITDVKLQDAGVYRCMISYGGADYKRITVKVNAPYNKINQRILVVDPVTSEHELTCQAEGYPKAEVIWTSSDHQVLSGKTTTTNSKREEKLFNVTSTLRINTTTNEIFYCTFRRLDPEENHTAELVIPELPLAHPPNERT
T3 sequence (G7PSE7 entry or part of it limits assumed, one chain of several): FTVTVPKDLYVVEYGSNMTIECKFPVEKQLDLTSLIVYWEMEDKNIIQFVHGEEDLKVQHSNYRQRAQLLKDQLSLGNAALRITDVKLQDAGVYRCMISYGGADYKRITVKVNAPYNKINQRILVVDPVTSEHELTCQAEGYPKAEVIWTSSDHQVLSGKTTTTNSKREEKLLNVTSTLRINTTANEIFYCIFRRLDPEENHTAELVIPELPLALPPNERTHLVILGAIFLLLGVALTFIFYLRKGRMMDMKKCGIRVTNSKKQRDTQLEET
T4 sequence (Q9NZQ7 19-290, one chain of several): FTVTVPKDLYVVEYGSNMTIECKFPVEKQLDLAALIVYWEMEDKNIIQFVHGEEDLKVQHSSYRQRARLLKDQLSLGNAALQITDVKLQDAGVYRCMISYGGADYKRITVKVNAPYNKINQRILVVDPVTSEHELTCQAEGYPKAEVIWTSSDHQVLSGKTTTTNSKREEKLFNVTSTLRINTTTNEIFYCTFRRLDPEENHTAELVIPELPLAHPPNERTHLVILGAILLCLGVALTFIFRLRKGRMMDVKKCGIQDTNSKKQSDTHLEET
T1 sequence (Q9NZQ7 19-290): as the sequence (Q9NZQ7 19-290, one chain of several) above
T2 sequence (Q9NZQ7 19-238 limits assumed): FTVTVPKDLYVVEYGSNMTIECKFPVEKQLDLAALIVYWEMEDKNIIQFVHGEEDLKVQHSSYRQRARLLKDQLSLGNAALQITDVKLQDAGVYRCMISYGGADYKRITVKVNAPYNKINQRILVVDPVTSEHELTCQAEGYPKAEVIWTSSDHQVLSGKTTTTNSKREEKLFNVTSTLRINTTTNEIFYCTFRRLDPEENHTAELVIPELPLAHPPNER

Row | Binder | EC50 (nM), PD-1 / NFAT-luciferase reporter [1] [nM] | Maximum fluorescence value (RLU) [1] [RLU] | EC50 [2] [nM] | EC50 [3] [nM] | MFI maximum value [3] [MFI] | IC50 [4] [nM] | Maximum inhibition rate (%) [4] [%] | Kd [5] [nM] | koff [5] [s⁻¹] | kon [5] [M⁻¹ s⁻¹] | also measured
1 | PR000265 (antibody, human IgG1, kappa, N297A, heavy chain human IgG1 (N297A)) heavy: not shown light: DIQMTQSPSTLSASVGDRVTVTCRASQSIYIWLAWYQQKPGKAPNLLIYKASSLETGVPSRFSGSGSGTEFTLTISSLQPDDFATYYCQQYYGSSRTFGQGTKVEIKRTVAAPSVFIFPPSDEQLKSGTASVVCLLNNFYPREAKVQWKVDNALQSGNSQESVTEQDSKDSTYSLSSTLTLSKADYEKHKVYACEVTHQGLSSPVTKSFNRGEC | 0.533 | 50700 | 0.0373 | 0.451 | 22600 | 0.604 | 93.6 | 0.409 | 0.000106 | 260000 | Kd [6]: 0.106 nM; koff [6]: 7.09e-05 s⁻¹; kon [6]: 669000 M⁻¹ s⁻¹
2 | PR000416 (antibody, human IgG1, kappa, PR000265 with the heavy chain constant region replaced by the human IgG1 constant region without mutation; also called Fc-type switching of PR000265) heavy: not shown light: DIQMTQSPSTLSASVGDRVTVTCRASQSIYIWLAWYQQKPGKAPNLLIYKASSLETGVPSRFSGSGSGTEFTLTISSLQPDDFATYYCQQYYGSSRTFGQGTKVEIKRTVAAPSVFIFPPSDEQLKSGTASVVCLLNNFYPREAKVQWKVDNALQSGNSQESVTEQDSKDSTYSLSSTLTLSKADYEKHKVYACEVTHQGLSSPVTKSFNRGEC |  |  |  |  |  |  |  |  |  |  | EC50 (nM), PD-1 reporter gene cell line [7]: 0.077 nM; Maximum fluorescence value (RLU) [7]: 3660 RLU; EC50 [8]: 0.259 nM; MFI maximum value [8]: 40400 MFI; EC50 [9]: 0.231 nM; MFI maximum value [9]: 37900 MFI; IC50 [10]: 0.127 nM; IC50 [11]: 0.19 nM

More lines, main results first:

Row | EC50 (nM), PD-1 / NFAT-luciferase reporter [1] [nM] | Maximum fluorescence value (RLU) [1] [RLU] | EC50 [2] [nM] | EC50 [3] [nM] | MFI maximum value [3] [MFI] | IC50 [4] [nM] | Maximum inhibition rate (%) [4] [%] | Kd [5] [nM] | koff [5] [s⁻¹] | kon [5] [M⁻¹ s⁻¹] | Binder | also measured
3 | 0.759 | 45500 | 0.0412 | 0.759 | 22200 | 1.16 | 91.3 |  |  |  | PR000268 (antibody, human IgG1, kappa, N297A, V domains shown, heavy chain human IgG1 (N297A)) VH: EVQLVESGGGLVQPGGSLRLSCAASGFTFSSYWMSWVRQAPGKGLEWVANIKQDASEKYYGDSVKGRFTISRDNAKNSLYLQMNSLRAEETAVYYCARDRAVAGASDIWGQGTMVTVSS VL: DIQMTQSPSTLSASVGDRVTITCRASQSISSWLAWYQQKPGKAPNLLIYKASSLETGVPSRFSGSGSGTEFTLTISSLQPDDFATYYCQQYYGYSRTFGQGTKVEIKR | 
4 | 0.68 | 48400 | 0.0415 | 0.562 | 22400 | 0.838 | 91.5 | 0.349 | 9.62e-05 | 276000 | PR000266 (antibody, human IgG1, kappa, N297A, V domains shown, heavy chain human IgG1 (N297A)) VH: EVQLVESGGGLVQPGGSLRLSCAASGFTFSSYWMSWVRQAPGKGLEWVANIKQDASEKYYVDSVKGRFTISRDNAKNSLYLQMNSLRAEDTAVYYCARDRAVAGAFDIWGQGTMVTVSS VL: DIQMTQSPSTLSASVGDRVTVTCRASQSIYIWLAWYQQKPGKAPNLLIYKASSLETGVPSRFSGSGSGTEFTLTISSLQPDDFATYYCQQYYGSSRTFGQGTKVEIKR | 
